As a reminder, the Kd is the concentration at which binding is half-saturated. Read a high Kd as lower affinity.

Numbering of substitutions follows the chain as printed. Names may count otherwise.

The values below come from patent publication US20240294594A1 (CYTUNE PHARMA, published 2024).

Assay [1] concerns the target PD-1 (on PD-1 Effector Cells of the Promega PD-1/PD-L1 Blockade Bioassay) (UniProt Q15116 25-288, limits assumed). The experiment in a line: cell-based or functional assay.
Assay [2] deals with T1, IL-2/IL-15Rβγ (on cells) (UniProt P14784 27-551; P31785 23-369, limits assumed).
T1 sequence (looked up) 1: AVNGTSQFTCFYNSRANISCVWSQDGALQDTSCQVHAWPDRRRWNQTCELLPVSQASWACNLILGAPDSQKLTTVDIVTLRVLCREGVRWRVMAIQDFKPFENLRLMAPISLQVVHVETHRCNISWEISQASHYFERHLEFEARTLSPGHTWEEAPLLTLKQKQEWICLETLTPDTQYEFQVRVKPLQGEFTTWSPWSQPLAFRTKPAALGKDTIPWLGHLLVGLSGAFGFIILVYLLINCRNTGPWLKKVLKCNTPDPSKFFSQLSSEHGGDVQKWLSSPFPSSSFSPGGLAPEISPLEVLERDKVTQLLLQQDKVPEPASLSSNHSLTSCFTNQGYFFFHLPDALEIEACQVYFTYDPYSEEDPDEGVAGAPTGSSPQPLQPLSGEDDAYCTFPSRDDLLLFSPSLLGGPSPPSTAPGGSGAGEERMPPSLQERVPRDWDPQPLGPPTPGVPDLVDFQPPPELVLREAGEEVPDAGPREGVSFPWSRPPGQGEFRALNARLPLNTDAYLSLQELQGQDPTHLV
T1 sequence (looked up) 2: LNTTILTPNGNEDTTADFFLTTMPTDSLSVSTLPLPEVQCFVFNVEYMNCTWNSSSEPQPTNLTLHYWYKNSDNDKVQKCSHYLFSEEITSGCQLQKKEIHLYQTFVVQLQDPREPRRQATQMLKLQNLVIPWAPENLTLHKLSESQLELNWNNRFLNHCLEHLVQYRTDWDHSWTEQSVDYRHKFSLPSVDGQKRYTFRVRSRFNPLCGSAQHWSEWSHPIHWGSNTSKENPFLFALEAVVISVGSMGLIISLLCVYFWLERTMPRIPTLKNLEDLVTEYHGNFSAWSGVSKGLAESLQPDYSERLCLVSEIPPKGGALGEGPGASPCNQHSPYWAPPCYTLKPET
The experiment in a line: cell-based or functional assay.

For assay [3], the target named is T1, IL-2/IL-15Rβγ (on cells). The experiment in a line: cell-based or functional assay. This is another data set of the same source.
For the next assay, the target named is T2, FcγRIIb (UniProt P31994 46-217, limits assumed).
T2 construct: also called FcgRIIb
T2 sequence (looked up): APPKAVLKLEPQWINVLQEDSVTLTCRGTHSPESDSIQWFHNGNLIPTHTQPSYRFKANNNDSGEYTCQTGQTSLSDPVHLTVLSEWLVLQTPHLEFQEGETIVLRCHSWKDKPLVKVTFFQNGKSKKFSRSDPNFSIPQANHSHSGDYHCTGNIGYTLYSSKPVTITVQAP
The experiment in a line: SPR (Biacore 8K), receptor captured via anti-His antibody. On the procedure: (§1) SPR experiments were performed on a Biacore 8K (Cytiva, Chicago, IL, USA), using CM5 sensor chips (Cytiva) with an immobilization using THE His tag antibodies (Genscript). FcγRIIIa V158, FcγRIIIa F158 or FcγRIIb protein were used for capture with a contact time of 30 sec at a flow rate of […] in a 1×HBS-EP+ running buffer. Association/dissociation rates were measured for each tested immunocytokine at a flow rate of 30 μl/min with concentration serial dilution in a suitable range with an association time/dissociation time of 300 s/300 s except for constructs with DLE and DE with and without afucosylation, where association/dissociation time of 120 s/1200 s was applied.

In assay [4] the target is T3, FcγRIIIa V158 (human, UniProt P08637 17-208, limits assumed).
T3 construct: also called hFcγRIIIaV158; CD16a V158
The assay is described as above. On the procedure: as §1

The target in assay [5] is T4, FcγRIIIa F158 (human, UniProt P08637 17-208, limits assumed).
T4 construct: also called hFcγRIIIaF158; CD16a F158
Described as above. As to the method: as §1

Assay [6] has as its target T3, FcγRIIIa V158. The experiment in a line: SPR (Biacore 8K), ratio of 1/Kd values. As to the method:
as §1

In assay [7] the target is T4, FcγRIIIa F158. The experiment in a line: SPR (Biacore 8K), ratio of 1/Kd values. On the procedure: as §1
In general terms: In SPR one partner is held on a chip, and binding of the other changes the refractive index at the surface.

T4 sequence (P08637 17-208 limits assumed): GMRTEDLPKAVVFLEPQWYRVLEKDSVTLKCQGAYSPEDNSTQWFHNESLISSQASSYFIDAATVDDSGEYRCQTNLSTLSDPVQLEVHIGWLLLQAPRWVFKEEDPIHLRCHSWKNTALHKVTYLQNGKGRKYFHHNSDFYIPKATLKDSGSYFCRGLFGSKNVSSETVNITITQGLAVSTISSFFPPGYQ
T3 sequence (P08637 17-208 F176V limits assumed): as the sequence (P08637 17-208 limits assumed) above, with F160V counted along it
Sequence of PD-1 (on PD-1 Effector Cells of the Promega PD-1/PD-L1 Blockade Bioassay) (Q15116 25-288 limits assumed): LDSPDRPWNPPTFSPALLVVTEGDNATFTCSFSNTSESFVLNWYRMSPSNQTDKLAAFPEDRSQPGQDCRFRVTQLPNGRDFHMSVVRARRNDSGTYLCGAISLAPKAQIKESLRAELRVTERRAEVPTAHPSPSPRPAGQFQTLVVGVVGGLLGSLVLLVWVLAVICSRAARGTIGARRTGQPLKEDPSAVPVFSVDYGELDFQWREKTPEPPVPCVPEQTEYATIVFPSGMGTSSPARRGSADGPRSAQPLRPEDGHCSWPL

B1: PEM LE/YTE-RLI NA x1 (other)
heavy 1: QVQLVQSGVEVKKPGASVKVSCKASGYTFTNYYMYWVRQAPGQGLEWMGGINPSNGGTNFNEKFKNRVTLTTDSSTTTAYMELKSLQFDDTAVYYCARRDYRFDMGFDYWGQGTTVTVSSASTKGPSVFPLAPCSRSTSESTAALGCLVKDYFPEPVTVSWNSGALTSGVHTFPAVLQSSGLYSLSSVVTVPSSSLGTKTYTCNVDHKPSNTKVDKRVESKYGPPCPPCPAPEFEGGPSVFLFPPKPKDTLYITREPEVTCVVVDVSQEDPEVQFNWYVDGVEVHNAKTKPREEQFNSTYRVVSVLTVLHQDWLNGKEYKCKVSNKGLPSSIEKTISKAKGQPREPQVYTLPPSQEEMTKNQVSLWCLVKGFYPSDIAVEWESNGQPENNYKTTPPVLDSDGSFFLYSRLTVDKSRWQEGNVFSCSVMHEALHNHYTQKSLSLSLGITCPPPMSVEHADIWVKSYSLYSRERYICNSGFKRKAGTSSLTECVLNKATNVAHWTTPSLKCIRDPALVHQRPAPPSGGSGGGGSGGGSGGGGSGGNWVNVISDLKKIEDLIQSMHIDATLYTESDVHPSCKVTAMKCFLLELQVISLESGDASIHDTVEALIILANNSLSSNAQVTESGCKECEELEEKNIKEFLQSFVHIVQMFINTS
heavy 2: QVQLVQSGVEVKKPGASVKVSCKASGYTFTNYYMYWVRQAPGQGLEWMGGINPSNGGTNFNEKFKNRVTLTTDSSTTTAYMELKSLQFDDTAVYYCARRDYRFDMGFDYWGQGTTVTVSSASTKGPSVFPLAPCSRSTSESTAALGCLVKDYFPEPVTVSWNSGALTSGVHTFPAVLQSSGLYSLSSVVTVPSSSLGTKTYTCNVDHKPSNTKVDKRVESKYGPPCPPCPAPEFEGGPSVFLFPPKPKDTLYITREPEVTCVVVDVSQEDPEVQFNWYVDGVEVHNAKTKPREEQFNSTYRVVSVLTVLHQDWLNGKEYKCKVSNKGLPSSIEKTISKAKGQPREPQVYTLPPSQEEMTKNQVSLSCAVKGFYPSDIAVEWESNGQPENNYKTTPPVLDSDGSFFLVSRLTVDKSRWQEGNVFSCSVMHEALHNHYTQKSLSLSLG
light: EIVLTQSPATLSLSPGERATLSCRASKGVSTSGYSYLHWYQQKPGQAPRLLIYLASYLESGVPARFSGSGSGTDFTLTISSLEPEDFAVYYCQHSRDLPLTFGGGTKVEIKRTVAAPSVFIFPPSDEQLKSGTASVVCLLNNFYPREAKVQWKVDNALQSGNSQESVTEQDSKDSTYSLSSTLTLSKADYEKHKVYACEVTHQGLSSPVTKSFNRGEC
Turning to B1, the “EC50 [pM], PD-1/PD-L1 Blockade Bioassay (Promega)” value in assay [1] amounted to 1440 pM.

B2: RLI2 mutein D30N/E64Q/N65D (NQD) of Table 13 (ligand)
chain: ITCPPPMSVEHADIWVKSYSLYSRERYICNSGFKRKAGTSSLTECVLNKATNVAHWTTPSLKCIRDPALVHQRPAPPSGGSGGGGSGGGSGGGGSGGNWVNVISDLKKIEDLIQSMHIDATLYTESNVHPSCKVTAMKCFLLELQVISLESGDASIHDTVQDLIILANNSLSSNGNVTESGCKECEELEEKNIKEFLQSFVHIVQMFINTS
In the case of B2, the “Potency in vitro (kit225)” value in the assay with IL-2/IL-15Rβγ (on cells) [2] is -15700 x (fold against RLI2 wt).

B3: RLI DANAQD (ligand)
chain: B2 chain with N127D, D158A, Q161E, D162A, Q198D
On to B3, for which the “EC50 kit225 cells [pM]” value in the assay with IL-2/IL-15Rβγ (on cells) [3] was determined as 106000 pM.

B4: hCl1a AAA-RLI DANA (other)
heavy 1: QVQLVQSGAEVKKPGASVKVSCKASGYTFTDYAMHWVRQAPGQRLEWMGWINTYTGKPTYAQKFQGRVTITRDTSASTAYMELSSLRSEDTAVYYCARAVFYGYTMDAWGQGTLVTVSSASTKGPSVFPLAPSSKSTSGGTAALGCLVKDYFPEPVTVSWNSGALTSGVHTFPAVLQSSGLYSLSSVVTVPSSSLGTQTYICNVNHKPSNTKVDKKVEPKSCDKTHTCPPCPAPELLGGPSVFLFPPKPKDTLMISRTPEVTCVVVDVSHEDPEVKFNWYVDGVEVHNAKTKPREEQYNATYRVVSVLTVLHQDWLNGKEYKCKVSNKALPAPIAATISKAKGQPREPQVYTLPPSRDELTKNQVSLWCLVKGFYPSDIAVEWESNGQPENNYKTTPPVLDSDGSFFLYSKLTVDKSRWQQGNVFSCSVMHEALHNHYTQKSLSLSPGITCPPPMSVEHADIWVKSYSLYSRERYICNSGFKRKAGTSSLTECVLNKATNVAHWTTPSLKCIRDPALVHQRPAPPSGGSGGGGSGGGSGGGGSGGNWVNVISDLKKIEDLIQSMHIDATLYTESDVHPSCKVTAMKCFLLELQVISLESGDASIHATVEALIILANNSLSSNAQVTESGCKECEELEEKNIKEFLQSFVHIVQMFINTS
heavy 2: QVQLVQSGAEVKKPGASVKVSCKASGYTFTDYAMHWVRQAPGQRLEWMGWINTYTGKPTYAQKFQGRVTITRDTSASTAYMELSSLRSEDTAVYYCARAVFYGYTMDAWGQGTLVTVSSASTKGPSVFPLAPSSKSTSGGTAALGCLVKDYFPEPVTVSWNSGALTSGVHTFPAVLQSSGLYSLSSVVTVPSSSLGTQTYICNVNHKPSNTKVDKKVEPKSCDKTHTCPPCPAPELLGGPSVFLFPPKPKDTLMISRTPEVTCVVVDVSHEDPEVKFNWYVDGVEVHNAKTKPREEQYNATYRVVSVLTVLHQDWLNGKEYKCKVSNKALPAPIAATISKAKGQPREPQVYTLPPSRDELTKNQVSLSCAVKGFYPSDIAVEWESNGQPENNYKTTPPVLDSDGSFFLVSKLTVDKSRWQQGNVFSCSVMHEALHNHYTQKSLSLSPG
light: DIQMTQSPSSLSASVGDRVTITCRASEDIYSNLAWYQQKPGKAPKLLIFSVKRLQDGVPSRFSGSGSGTDFTLTISSLQPEDFATYYCLQGSNFPLTFGQGTKVEIKRTVAAPSVFIFPPSDEQLKSGTASVVCLLNNFYPREAKVQWKVDNALQSGNSQESVTEQDSKDSTYSLSSTLTLSKADYEKHKVYACEVTHQGLSSPVTKSFNRGEC
notes: Immunocytokine; also called SOT202-AAA-DANA
On to B4, for which the Kd in the assay with FcγRIIb worked out at 24600 nM; with FcγRIIIa V158 [4], 35.6 nM; with FcγRIIIa F158 [5], 101 nM. Also, in the assay with FcγRIIIa V158 [6], the “A/I (V158), affinity towards FcγRIIIa over affinity towards FcγRIIb” value turned out to be 691 ratio. Moreover, in the assay with FcγRIIIa F158 [7], the “A/I (F158), affinity towards FcγRIIIa over affinity towards FcγRIIb” value was determined as 244 ratio.

B5: hCl1a DLE-RLI DANA afuc (other)
heavy 1: B4 heavy 1 with S241D, A300S, A332L, I334E, A335E, A336K
heavy 2: B4 heavy 2 with S241D, A300S, A332L, I334E, A335E, A336K
light: B4 light
modifications: afucosylated Fc N-glycan
notes: Afucosylated form of hCl1a DLE-RLI DANA
Take B5: the Kd in the assay with FcγRIIb came out at 2220 nM; with FcγRIIIa V158 [4], 0.162 nM; in the assay with FcγRIIIa F158 [5] it was 0.237 nM. Also, the “A/I (V158), affinity towards FcγRIIIa over affinity towards FcγRIIb” value with FcγRIIIa V158 [6] was determined as 13700 ratio. In the assay with FcγRIIIa F158 [7], the “A/I (F158), affinity towards FcγRIIIa over affinity towards FcγRIIb” value amounted to 9370 ratio.

B6: hCl1a DLE-RLI DANA (other)
heavy 1: B4 heavy 1 with S241D, A300S, A332L, I334E, A335E, A336K
heavy 2: B4 heavy 2 with S241D, A300S, A332L, I334E, A335E, A336K
light: B4 light
notes: Immunocytokine; also called SOT202-DLE-DANA
With B6, the values for the Kd in the assay with FcγRIIb, with FcγRIIIa V158 [4] and with FcγRIIIa F158 [5] were 2650 nM, 5.71 nM and 11.6 nM, respectively. Besides, the “A/I (V158), affinity towards FcγRIIIa over affinity towards FcγRIIb” value with FcγRIIIa V158 [6] stood at 464 ratio. Further, the “A/I (F158), affinity towards FcγRIIIa over affinity towards FcγRIIb” value in the assay with FcγRIIIa F158 [7] worked out at 228 ratio.

B7: hCl1a AAA-RLI DANA afuc (other)
heavy 1: B4 heavy 1
heavy 2: B4 heavy 2
light: B4 light
modifications: afucosylated Fc N-glycan
With B7, the results for the Kd with FcγRIIb, with FcγRIIIa V158 [4] and in the assay with FcγRIIIa F158 [5] were 17500 nM, 17.3 nM and 46.1 nM, respectively. The “A/I (V158), affinity towards FcγRIIIa over affinity towards FcγRIIb” value with FcγRIIIa V158 [6] was determined as 1010 ratio. Further, the “A/I (F158), affinity towards FcγRIIIa over affinity towards FcγRIIb” value with FcγRIIIa F158 [7] stood at 380 ratio.
